Data on one molecule can be found in patent US20090253152A1 (OREGON HEALTH AND SCIENCE UNIVERSITY, published 2009).

Ends that are not written are not given here.

The target of this test is T1, insulin-like growth factor I (IGF-I) (human, UniProt P05019 49-118, 125I-labelled in the ligand blots, affinity cross-linking and solution binding assay; unlabelled in BIAcore).
T1 construct: Human is stated only for the BIAcore material (rhIGF-I); also called rhIGF-I
As to the kind of experiment: dot ligand blot: E. coli GST-fusion lysate dotted on nitrocellulose, probed with 125I-IGF-I; anti-GST dot immunoblot as loading control. The method, then:
For dot blots, 2.5 μl of sample were dotted directly onto the nitrocellulose membrane. The membranes were then blocked for 1 h at 21° C. in 4% milk/TBS-T, followed by an overnight incubation at 4° C. with anti-IGFBP-3 monoclonal antibody (Diagnostic Systems Laboratories, Inc., Webster, Tex.), anti-GST polyclonal antibody (Amersham Pharmacia Biotech, Piscataway, N.J.), anti-PY20 monoclonal antibody (Santa Cruz Biotech, Santa Cruz, Calif.), or anti-IRS-1 polyclonal antibody (Upstate, Lake Placid, N.Y.), all at 1:3000 dilutions. Membranes were washed with TBS-T and incubated for 1 h at 21° C. with a 1:3000 dilution of horseradish peroxidase-linked antirabbit or antimouse IgG secondary antibodies (Amersham Pharmacia Biotech, Piscataway, N.J.). Proteins were detected by enhanced chemiluminescence reagents, according to the manufacturer's protocol (NEN Life Science Products, Boston, Mass.).
Lane 1, ⁽¹⁻⁴⁶⁾IGFBP-3; lane 2, ⁽¹⁻⁷⁵⁾IGFBP-3; lane 3, ⁽¹⁻⁸⁰⁾IGFBP-3; lane 4, ⁽¹⁻⁸⁷⁾IGFBP-3; lane 5, full-length IGFBP-3; lane 6, pGEX4T-1 vector alone. The binding of these IGFBP-3 “deletion” fragments to [¹²⁵I]-IGF-I is shown, along with wild-type IGFBP-3 binding, and control vector (pGEX4T-1) to [¹²⁵I]-IGF-I. For each protein sample, the protein extract was directly pipetted onto nitrocellulose paper, incubated in 1% BSA with [¹²⁵I]-IGF-I, and then exposed to film. […]

T1 sequence (P05019 49-118 limits assumed): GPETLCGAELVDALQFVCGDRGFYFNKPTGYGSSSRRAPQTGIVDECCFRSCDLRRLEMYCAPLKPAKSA

B1: (1-46)IGFBP-3 FLAG-tagged fragment, GST-fusion (E. coli) (other, human)
chain: GASSAGLGPVVRCEPCDARALAQCAPPPAVCAELVREPGCGCCLTCDYKDDDDK
modifications: cysteine pairing not given here; also: GST fusion with the vector's linker, linker sequence and fusion end not given here
notes: range 1-46; Tested as crude E. coli cell lysate; not shown: glutathione S-transferase encoded by vector pGEX4T-1, with the vector's linker
Take B1: the binding result is listed as “no binding”.
